Consider 58 substances from the supplement of paper PMC12042874.

± gives the uncertainty stated by the source.

The data set can be described thus: amyloid nucleation score (Sup35N fusion, yeast selection) (log enrichment); library NNK2; higher = more nucleation; inactive = no reads after selection. Summed up: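 On medium lacking adenine and uracil, psi-negative yeast expressing peptides of 20 random codons fused to Sup35N were grown 7 days at 30°C after a 24-hour induction with 100 μM copper sulfate. Illumina sequencing of input and output plasmid inserts gave the reads, and sequences under 100 input reads were excluded. The nucleation score is the DiMSum log enrichment of output over input reads, centred on the mode score of non-aggregating sequences.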
The substance IRCVNIKSLP had an amyloid nucleation score of -1.24 ± 1.1.
For the substance MHWFPPYDWK, the amyloid nucleation score stood at 0.266 ± 1.
The substance PPVVVSTSIWSRLCSYV came in with an amyloid nucleation score of 0.151 ± 0.35.
Take CFTSWMRPRKSYLTDNRCIN: the amyloid nucleation score is -0.55 ± 0.79.
In turn, YRAMESNRKRTPVKPVRCVV registered an amyloid nucleation score of 2.85 ± 0.11.
In turn, IILAKLSLLTICCSIDWISR yielded an amyloid nucleation score of 3.07 ± 0.11.
Consider SLLGVENNCVISFTTIFVVS, for which the amyloid nucleation score worked out at 5.11 ± 0.088.
TCGTVSNSRASRQFESSSNA had an amyloid nucleation score of 0.633 ± 0.18.
On to LSKCHCNILCVLMTCMWHLY, for which the amyloid nucleation score came out at 0.333 ± 0.46.
With TGWTFWGGCRWM the figure was 4.57 ± 0.12; with QRYGVFAYGRLIRIHCRRLG, 0.159 ± 0.29; with SCFIFSCYDTSLQMLVFAVG, -0.591 ± 0.63.
Take YRVVM: the amyloid nucleation score is 1.22 ± 0.69.
With GKGSRFRYSIGG the figure was 0.943 ± 0.47; with CQTHPYYVICFQAVKKCWES, -0.899 ± 0.56; with GKGNAFVLNFSYGYRCVYHG, 6.398 ± 0.04.
The substance CCWVDLGLKRMYESLFDR registered an amyloid nucleation score of 4.14 ± 0.051.
On to LLFIVCRISLNIVGQVA, for which the amyloid nucleation score is -0.137 ± 0.53.
In turn, SFNGVILRNDVITRVLFDRQ came in with an amyloid nucleation score of 6.7 ± 0.051.
Substance TGSVREYCGEVPWRLCDDRV showed an amyloid nucleation score of 0.244 ± 0.62.
To TQRHATENLKFTTWAYKSRE belongs 0.994 ± 0.16; to NAVEIERNLLQIFQLLNSGE, -0.739 ± 0.64.
Consider GFKILIEFWSATGRLQ, for which the amyloid nucleation score came out at 3.97 ± 0.078.
To DDYVWCSYRLMFKSSHEALL belongs -1.24 ± 1.1.
To FVDVVPGKSGASET belongs -0.126 ± 0.49; to FMLTLQKTLFFCNDRVC, 5.25 ± 0.064; to HVHKL, -0.403 ± 0.39.
With IPSWCFVIYSRNGYGFLHCT, the amyloid nucleation score result was “inactive”.
For FYMNPRRYRGLVIMFFSSPV, the amyloid nucleation score is -1.27 ± 1.1.
Consider GGDVNGVSCYGGDVGLSAKG, for which the amyloid nucleation score was determined as 0.616 ± 0.25.
With NHESYWSKSSWFWLFNGVSQ, the amyloid nucleation score result is “inactive”.
With GDCQE the figure was 1.1 ± 0.23; with SNCGVLD, “inactive”.
In the case of CHACLWRETRVRTCVSAEHH, the amyloid nucleation score amounted to 1.65 ± 0.35.
Take DVWIFMTECGDAV: the amyloid nucleation score worked out at 0.743 ± 0.81.
Substance STYNCFTGADRSLL came in with an amyloid nucleation score of 0.94 ± 0.67.
Consider CGVIKHPLSGYYKRASMLCN, for which the amyloid nucleation score is -1.52 ± 1.1.
To RHVRMISHELNEDTCYTCIL belongs -0.536 ± 1.1; to VLFNYKLITGSMFCTRHTRP, 2.08 ± 0.11; to HEMVTRQRLVTSRQYLSLGV, 1.11 ± 0.29.
Substance ARSTAFMPEPSFLV registered an amyloid nucleation score of 0.054 ± 0.56.
With MCRRANGRVLGP the figure was 5.562 ± 0.042.
As to QYHCPS, the amyloid nucleation score was -0.616 ± 0.5.
Take AVLCWLCLLGGLNINFEECG: the amyloid nucleation score came out at 4.11 ± 0.045.
In turn, LSVSPGSRDLREPEDSFMWS yielded an amyloid nucleation score of -0.05 ± 0.3.
As for CEALQSW, the amyloid nucleation score was 0.699 ± 0.34.
For the substance VSLWLYISMQCTRLSRRDQG, the amyloid nucleation score amounted to 0.22 ± 0.65.
In the case of KDLEFGRCIDDDYPLSRSF, the amyloid nucleation score came out at 0.141 ± 0.46.
SNSMLASIVNHPSVSVMFFV had an amyloid nucleation score of 6.035 ± 0.047.
Take LLYTCFGVREVQMVTYRNAS: the amyloid nucleation score stood at 4 ± 0.063.
IFFLMNPR: the amyloid nucleation score is 2.16 ± 0.068.
IQQFVKVFVGDLNLTVDRNM yielded an amyloid nucleation score of 7.554 ± 0.06.
In turn, YSGFIMWYLFDDTAQIP gave an amyloid nucleation score of -0.781 ± 1.1.
To HFTSRLKIRSTIVAVVNVSS belongs 3.16 ± 0.078; to MYLVRIR, 0.316 ± 0.42; to FSLSQ, 3.55 ± 0.11.
NDGIFDSTRVVETMCLRSSP had an amyloid nucleation score of -0.129 ± 1.1.
Regarding NPLFHSPV, the amyloid nucleation score was 0.01 ± 0.65.
